Assay results published in US20240101684A1 (AIMED BIO, published 2024).

Key:
[1] = target: T1, human FGFR3 IIIc recombinant protein (766-FR-050, R&D) (human, UniProt P22607 23-375); assay: ELISA on humanFGFR3-IIIc
T1 construct: Bought recombinant antigen; also called FGFR3-IIIc (Human)
T1 sequence (looked up): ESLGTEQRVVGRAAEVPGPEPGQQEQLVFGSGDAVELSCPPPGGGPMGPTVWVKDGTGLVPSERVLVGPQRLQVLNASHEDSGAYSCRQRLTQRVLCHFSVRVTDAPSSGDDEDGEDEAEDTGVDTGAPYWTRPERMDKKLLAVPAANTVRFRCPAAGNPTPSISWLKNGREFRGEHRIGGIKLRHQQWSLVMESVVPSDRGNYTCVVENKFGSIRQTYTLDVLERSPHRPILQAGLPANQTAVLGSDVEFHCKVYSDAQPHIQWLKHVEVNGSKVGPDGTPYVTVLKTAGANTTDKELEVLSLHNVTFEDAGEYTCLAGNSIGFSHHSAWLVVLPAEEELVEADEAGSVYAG
Method: (§1) Affinity ELISA was performed to determine the binding ability of the produced antibody (IgG) to the FGFR3 antigen. A 96-well plate (4° C., overnight) was coated with […] of FGFR3 antigen and blocked with 3% skim milk (PBS) (room temperature, 1 hour). Then, the plate was treated with previously serially diluted antibody samples in duplicate and triplicate, and reacted at room temperature for 1 hour. Then, the result was washed with PBST 2 to 3 times, treated with the HRP-conjugated anti-human Fab antibody diluted in skim milk (room temperature, 1 hour), and washed again with PBST, and a color reaction (TMB substrate) was performed. Then, O.D. was measured at 450 nm.
(§2) The binding ability of the produced antibody (IgG) to human FGFR3 IIIb (1264-FR-050, R&D), IIIc (766-FR-050, R&D), mouse FGFR3 (9089-FR, R&D), and monkey FGFR3 (90313-C02H, Sino Biological) antigens was determined in the same manner as above.
(§3) The epitope domain mapping performed above was also performed on the affinity matured antibody F309 #SSM236 (hereinafter referred to as AMB302 #1.2). […] The antibody was also found to have specific binding ability to human/cyno FGFR3 (FIG. 17).

[2] = target: T2, Domain#3 (human, UniProt P22607); assay: FGFR3 Domain ELISA, AMB302#1.2, bar Domain#3
T2 construct: single domain fused to human IgG1 Fc; also called FGFR3 Domain 3; FGFR3 Ig domain III with Fc tag
T2 sequence (Fc fusion chain): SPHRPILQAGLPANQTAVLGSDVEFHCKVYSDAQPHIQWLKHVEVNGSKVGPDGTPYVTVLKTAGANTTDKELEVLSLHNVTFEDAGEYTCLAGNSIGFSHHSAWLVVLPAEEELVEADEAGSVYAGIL
Method: (§4) FGFR3 is composed of three domains, so each domain (FGFR3 Ig domain I, domain II, domain III) is attached with an Fc tag to analyze the FGFR3-binding domain of the discovered antibody, and produced and purified through a mammalian cell protein expression system (FIG. 9C). Analysis of the binding ability of the antibody to the purified domain was performed in the same manner as the ELISA described above. 1 μg/ml of an antigen was coated and treated with the antibody to induce a TMB color reaction. […] However, the epitope of the comparative antibody is included in domain No. 2, which was conducted according to the present invention. In addition, ligands of FGF1 and FGF9, and FGFR3 have been reported to bind to Ig domain II and domain III of FGFR3. Based on this, competition ELISA assay was conducted. […] This supports binding of F309 antibody to the aforementioned FGFR3 Ig domain I (FIG. 9A).
as §3

[3] = target: T3, monkey FGFR3 recombinant protein (90313-C02H, Sino Biological) (cynomolgus monkey, UniProt A0A2K5V1U5 23-376); assay: ELISA on cynoFGFR3
T3 construct: Bought recombinant antigen; also called cynomolgus monkey FGFR3; cyno FGFR3
T3 sequence: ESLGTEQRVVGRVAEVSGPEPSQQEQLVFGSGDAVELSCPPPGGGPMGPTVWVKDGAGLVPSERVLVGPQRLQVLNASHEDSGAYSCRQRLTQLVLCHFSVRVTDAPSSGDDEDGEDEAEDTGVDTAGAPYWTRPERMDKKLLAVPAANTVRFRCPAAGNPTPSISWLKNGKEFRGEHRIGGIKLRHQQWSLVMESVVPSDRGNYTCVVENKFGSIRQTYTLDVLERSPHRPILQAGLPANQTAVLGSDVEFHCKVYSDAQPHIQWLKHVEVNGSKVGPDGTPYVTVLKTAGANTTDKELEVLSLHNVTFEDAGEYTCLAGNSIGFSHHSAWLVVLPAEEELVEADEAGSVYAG
Method: as §1, §2, §3

[4] = target: T4, human FGFR3 IIIb recombinant protein (1264-FR-050, R&D) (human, UniProt P22607-2 23-377); assay: SPR (Biacore), antigen immobilised 276.2 RU, antibody injected
T4 construct: Bought recombinant antigen; also called rhFGFR3-IIIb; FGFR3-IIIb (Human)
T4 sequence (looked up): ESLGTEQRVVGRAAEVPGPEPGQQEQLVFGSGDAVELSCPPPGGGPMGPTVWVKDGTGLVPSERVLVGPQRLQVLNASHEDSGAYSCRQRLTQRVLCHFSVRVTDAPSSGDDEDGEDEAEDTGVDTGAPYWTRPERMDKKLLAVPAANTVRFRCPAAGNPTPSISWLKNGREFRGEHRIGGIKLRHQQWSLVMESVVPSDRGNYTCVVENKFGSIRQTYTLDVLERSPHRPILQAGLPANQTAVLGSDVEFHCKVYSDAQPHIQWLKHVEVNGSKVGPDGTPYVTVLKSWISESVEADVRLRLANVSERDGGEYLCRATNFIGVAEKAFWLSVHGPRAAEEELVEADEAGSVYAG

[5] = target: T1, human FGFR3 IIIc recombinant protein …; assay: SPR (Biacore), antigen immobilised 74.5 RU, antibody injected
[6] = target: T5, FGFR3 recombinant protein (isoform not given) (Homo sapiens (Human), UniProt P22607 23-375, limits assumed); assay: affinity ELISA on hFGFR3, lower left panel
T5 construct: also called FGFR3 antigen
T5 sequence: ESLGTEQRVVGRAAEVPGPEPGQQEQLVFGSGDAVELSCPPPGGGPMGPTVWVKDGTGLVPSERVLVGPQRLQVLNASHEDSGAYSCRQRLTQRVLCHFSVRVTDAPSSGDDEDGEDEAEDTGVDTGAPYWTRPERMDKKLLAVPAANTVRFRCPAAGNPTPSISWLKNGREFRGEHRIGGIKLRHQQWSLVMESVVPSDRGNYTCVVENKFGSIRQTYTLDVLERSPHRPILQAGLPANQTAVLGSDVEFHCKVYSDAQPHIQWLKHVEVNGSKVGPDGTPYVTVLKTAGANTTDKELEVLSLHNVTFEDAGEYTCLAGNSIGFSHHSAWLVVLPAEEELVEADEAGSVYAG
Method: as §1
The antigen affinity of the synthesized ADC sample (TOPOI-conjugated ADC) was determined by ELISA and the determination was performed in the same manner as the affinity ELISA performed in the present invention. […] In addition, the high purity physical properties of the prepared ADC were identified through SEC-HPLC analysis.

[7] = target: T6, FGFR3 Ig domain II with Fc tag (UniProt P22607 151-244); assay: FGFR3 Domain ELISA, AMB302#1.2, bar Domain#2
T6 construct: domain: FGFR3 Ig domain II; Recombinant domain made in mammalian cells; also called domain No. 2
T6 sequence: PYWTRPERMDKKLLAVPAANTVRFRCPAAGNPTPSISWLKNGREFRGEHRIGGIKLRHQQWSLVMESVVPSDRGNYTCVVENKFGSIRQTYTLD
Method: as §4, §3

[8] = target: T4, human FGFR3 IIIb recombinant protein …; assay: direct-binding ELISA on rhFGFR3-IIIb, 2' screening, plate 1 (row head prints IC50)
[9] = target: T3, monkey FGFR3 recombinant protein …; assay: SPR (Biacore), antigen immobilised 92 RU, antibody injected

B1: F309#SSM236 (antibody, V domains shown)
VH: EVQLLESGGGLVQPGGSLRLSCAASGFTFSSYDMSWVRQAPGKGLEWVSGIYSGDGSIYYADSVKGRFTISRDNSKNTLYLQMNSLRAEDTAVYYCAKDGPMNEESRFDYWGQGTLVTVSS
VL: QSVLTQPPSASGTPGQRVTISCSGSSSNIGNNYVSWYQQLPGTAPKLLIYADSKRPSGVPDRFSGSKSGTSASLAISGLRSEDEADYYCASWDYSLSGYVFGGGTKLTVL
notes: also called AMB302 #1.2; AMB302#1.2
For B1, the “EC50 (read off the curve)” value [1] was about 0.3 nM, the binding result [2] was “no binding” and the “EC50 (read off the curve)” value [3] was about 0.3 nM. For the same binder, the Kd [4] was 0.59 nM, the Kd [5] was 0.309 nM and the “EC50 (read off the curve)” value [6] was about 0.4 nM. For the same binder, the binding result [7] was “no binding”, the EC50 [8] was 0.753 nM and the Kd [9] was 0.755 nM.
